First the molecules themselves.
B1: Antibody L12-10 (antibody, human IgG1, kappa)
heavy: not shown
light: EIVLTQSPSSLSASVGDRVTIPCRASLSIGSFLNWYQQRPGEAPKLLIFAASSLRSGVPSRFSGSGSGTDFTLTISSLQPEDFATYYCQQTYTTPYTFGQGTKVEIKRTVAAPSVFIFPPSDEQLKSGTASVVCLLNNFYPREAKVQWKVDNALQSGNSQESVTEQDSKDSTYSLSSTLTLSKADYEKHKVYACEVTHQGLSSPVTKSFNRGEC
notes: Full-length IgG1
B2: Antibody L12-9 (antibody, human IgG1, kappa)
heavy: not shown
light: DIQMTQSPSSLSASVGDRVTITCRASLSIGSFLNWYQQKPGKAPKLLIYAASSLRSGVPSRFSGSGSGTDFTLTISSLQPEDFATYYCQQTYTTPYTFGQGTKVEIKRTVAAPSVFIFPPSDEQLKSGTASVVCLLNNFYPREAKVQWKVDNALQSGNSQESVTEQDSKDSTYSLSSTLTLSKADYEKHKVYACEVTHQGLSSPVTKSFNRGEC
notes: Full-length IgG1
B3: Antibody L12-3 (antibody, human IgG1, kappa, V domains shown)
VH: QVQLQESGPGLVKPSETLSLTCTVSGGSLDNYYWSWIRQPPGKGLEWIGYIYYSGNTNYNPSLKSRVTISVDTSKNQFSLKLSSVTAADTAVYYCARGGRFLERYWGQGTLVTVSS
VL: EIVLTQSPSSLSASVGDRVTITCRASLSIGSFLNWYQQKPGKAPKLLIFAASSLRSGVPSRFSGSGSGTDFTLTISSLQPEDFATYYCQQTYTTPYTFGQGTKVEIKR
notes: Full-length IgG1
B4: Antibody L12-4 (antibody, human IgG1, kappa)
heavy: not shown
light: EIVLTQSPSSLSASVGDRVTIPCRASLSIGSFLNWYQQKPGKAPKLLIFAASSLRSGVPSRFSGSGSGTDFTLTISSLQPEDFATYYCQQTYTTPYTFGQGTKVEIKRTVAAPSVFIFPPSDEQLKSGTASVVCLLNNFYPREAKVQWKVDNALQSGNSQESVTEQDSKDSTYSLSSTLTLSKADYEKHKVYACEVTHQGLSSPVTKSFNRGEC
notes: Full-length IgG1
B5: Antibody L12-5 (antibody, human IgG1, kappa)
heavy: not shown
light: EIVLTQSPSSLSASVGDRVTITCRASLSIGSFLNWYQQKPGKAPKLLIYAASSLRSGVPSRFSGSGSGTDFTLTISSLQPEDFATYYCQQTYTTPYTFGQGTKVEIKRTVAAPSVFIFPPSDEQLKSGTASVVCLLNNFYPREAKVQWKVDNALQSGNSQESVTEQDSKDSTYSLSSTLTLSKADYEKHKVYACEVTHQGLSSPVTKSFNRGEC
notes: Full-length IgG1
B6: Antibody L12-2 (antibody, human IgG1, kappa, V domains shown)
VH: QVQLQESGPGLVKPSETLSLTCTVSGGSLDNYYWSWIRQPPGKGLEWIGYIYYSGNTNYNPSLKSRVTISVDTSKNQFSLKLSSVTAADTAVYYCARGGRFLERYWGQGTLVTVSS
VL: EIVLTQSPSSLSASVGDRVTIPCRASLSIGSFLNWYQQRPGEAPKLLIFAASSLRSGVPSRFSGSGSGTDFTLTISSLQPEDFATYYCQQTYTTPYTFGQGTKVEIKR
notes: Full-length IgG1
B7: Antibody L12-11 (antibody, human IgG1, kappa)
heavy: not shown
light: DIQMTQSPSSLSASVGDRVTITCRASLSIGSFLNWYQQKPGKAPKLLIYAASSLRSGVPSRFSGSGSGTDFTLTISSLQPEDFATYYCQQTYTTPYTFGQGTKVEIKRTVAAPSVFIFPPSDEQLKSGTASVVCLLNNFYPREAKVQWKVDNALQSGNSQESVTEQDSKDSTYSLSSTLTLSKADYEKHKVYACEVTHQGLSSPVTKSFNRGEC
notes: Full-length IgG1
B8: Antibody L12-1 (antibody, human IgG1, kappa)
heavy: not shown
light: EIVLTQSPSSLSASVGDRVTITCRASLSIGSFLNWYQQKPGKAPKLLIYAASSLRSGVPSRFSGSGSGTDFTLTISSLQPEDFATYYCQQTYTTPYTFGQGTKVEIKRTVAAPSVFIFPPSDEQLKSGTASVVCLLNNFYPREAKVQWKVDNALQSGNSQESVTEQDSKDSTYSLSSTLTLSKADYEKHKVYACEVTHQGLSSPVTKSFNRGEC
notes: Full-length IgG1
B9: Antibody L12-7 (antibody, human IgG1, kappa)
heavy: not shown
light: EIVLTQSPSSLSASVGDRVTITCRASLSIGSFLNWYQQKPGKAPKLLIFAASSLRSGVPSRFSGSGSGTDFTLTISSLQPEDFATYYCQQTYTTPYTFGQGTKVEIKRTVAAPSVFIFPPSDEQLKSGTASVVCLLNNFYPREAKVQWKVDNALQSGNSQESVTEQDSKDSTYSLSSTLTLSKADYEKHKVYACEVTHQGLSSPVTKSFNRGEC
notes: Full-length IgG1
B10: Antibody 3 (antibody, human IgG1, kappa, V domains shown)
VH: QVQLQESGPGLVKPSETLSLTCTVSGGSLDGYYWSWIRQPPGKGLEWIGRIYGNSTTNYNPSLKSRVTISVDTSKNQFSLRLRSVTAADTAVYYCARGGRIFAGYWGQGTLVTVSS
VL: DIQMTQSPSSVSASVGDRVTISCRANQAIGTWLAWYQQKPGKAPKLLIYAASTLQSGVPSRFSGSGSGTEFTLTISSLQAEDVAVYYCQQYYTTPLTFGGGTKLEIKR
notes: Full-length IgG1
B11: Antibody 3-6 (antibody, human IgG1, kappa, V domains shown)
VH: QVQLQESGPGLVKPSETLSLTCTVSGGSLDNYYWSWIRQPPGKGLEWIGYIYYSGNTNYNPSLKSRVTISVDTSKNQFSLRLRSVTAADTAVYYCARGGRIFAGYWGQGTLVTVSS
VL: DIQMTQSPSSVSASVGDRVTISCRANQAIGTWLAWYQQKPGKAPKLLIYAASTLQSGVPSRFSGSGSGTEFTLTISSLQAEDVAVYYCQQYYTTPLTFGGGTKLEIKR
notes: Full-length IgG1
B12: Antibody 11 (antibody, human IgG1, kappa, V domains shown)
VH: QVQLQESGPGLVKPSETLSLTCTVSGGSLDGYYWSWIRQPPGKGLEWIGRIYDGSGTNYNPSLKSRVTISVDTSKNQFSLRLRSVTAADTAVYYCARGGRIFGGYWGQGTLVTVSS
VL: DIQMTQSPSSVSASVGDRVTISCRANQAIGTWLAWYQQKPGKAPKLLIYAASTLQSGVPSRFSGSGSGTEFTLTISSLQAEDVAVYYCQQYYTTPLTFGGGTKLEIKR
notes: Full-length IgG1
B13: Antibody 6 (antibody, human IgG1, kappa, V domains shown)
VH: QVQLQESGPGLVKPSETLSLTCTVSGGSLNDYYWSWIRQPPGKGLEWIGRIYGNGDTNYNPSLKSRVTISVDTSKNQFSLRLRSVTAADTAVYYCARGGRILAGYWGQGTLVTVSS
VL: DIQMTQSPSSVSASVGDRVTISCRANQAIGTWLAWYQQKPGKAPKLLIYAASTLQSGVPSRFSGSGSGTEFTLTISSLQAEDVAVYYCQQYYTTPLTFGGGTKLEIKR
notes: Full-length IgG1
B14: Antibody 10 (antibody, human IgG1, kappa, V domains shown)
VH: QVQLQESGPGLVKPSETLSLTCTVSGGSLDNYYWSWIRQPPGKGLEWIGRIYYNGNTNYNPSLKSRVTISVDTSKNQFSLRLRSVTAADTAVYYCARGGRILAGYWGQGTLVTVSS
VL: DIQMTQSPSSVSASVGDRVTISCRANQAIGTWLAWYQQKPGKAPKLLIYAASTLQSGVPSRFSGSGSGTEFTLTISSLQAEDVAVYYCQQYYTTPLTFGGGTKLEIKR
notes: Full-length IgG1
B15: Antibody 3-3 (antibody, human IgG1, kappa, V domains shown)
VH: QVQLQESGPGLVKPSETLSLTCTVSGGSLDNYYWSWIRQPPGKGLEWIGYIYYSGNTNYNPSLKSRVTISVDTSKNQFSLRLRSVTAADTAVYYCARGGRIFGGYWGQGTLVTVSS
VL: DIQMTQSPSSVSASVGDRVTISCRANQAIGTWLAWYQQKPGKAPKLLIYAASTLQSGVPSRFSGSGSGTEFTLTISSLQAEDVAVYYCQQYYTTPLTFGGGTKLEIKR
notes: Full-length IgG1

The first test deals with T1, His-tagged human CD47-ECD protein (CD47-His) (human, UniProt Q08722 19-139).
T1 construct: Expressed in HEK293F cells; also called CD47-His antigen
T1 sequence (Q08722 other isoform, or with tags, fused parts or gaps): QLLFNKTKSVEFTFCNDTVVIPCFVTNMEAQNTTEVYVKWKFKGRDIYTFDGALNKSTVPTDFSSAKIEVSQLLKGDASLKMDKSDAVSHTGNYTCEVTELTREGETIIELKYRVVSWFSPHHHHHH
The test is described as follows: BLI (Fortebio), antibody on protein A sensor, CD47-His in solution. Background: BLI is a label-free optical method that tracks binding on a fibre tip over time.
Experimental: A protein A sensor was pre-wetted in PBS for 10 min for later use. The test antibodies were diluted to 10 μg/mL with PBST haying a pH of 6.8 and containing 0.5% BSA (hereinafter referred to as dilution buffer). The PA sensor was immobilized in the antibodies until the signal was about 1.7 nm. […] The dilution buffer, the antigen dilutions at the gradient concentrations, a regeneration buffer (1 M MgCl₂ at pH 8.4) and a neutralization buffer (PBST) were sequentially added to the corresponding columns in a 96-well plate, and the following steps were performed: (1) Baseline: 60 seconds of baseline detection in the dilution buffer; (2) Association: 100 seconds of association in the serial dilutions of the antigen and a sample blanks (dilution buffer); (3) Dissociation: 700 seconds of dissociation in the dilution buffer; (4) Regeneration: 5 seconds of regeneration in the regeneration buffer; (5) Neutralization: 5 seconds of neutralization in the neutralization buffer; and (6) 3 Regeneration-Neutralization cycles.
The data was processed and analyzed using Data Analysis 8.2; and the sample data was fitted after reference (sample blank) signal subtraction to obtain an affinity constant (KD).
B1 had a dissociation constant Kd of 195 pM.
Same read-out and setting: then B2, with 124 pM.
Same read-out and setting: the value for B3 was 144 pM.
Still for that read-out and setting: the value for B4 was 107 pM.
B5 had a dissociation constant Kd of 138 pM.
B6 displayed a Kd of 122 pM.
B7 showed a Kd of 175 pM.
Still for that read-out and setting: then B8, with 152 pM; and B9, with 149 pM.

The next test addresses T1, His-tagged human CD47-ECD protein …. Nature of the test: competitive ELISA on coated CD47-His (2 µg/mL); blocked ligand SIRPα-Fc-Bio (0.1 µg/mL), HRP-streptavidin, OD450; value is parameter C of the printed 4-parameter fit. On the technique in general: In an ELISA, binding on a coated surface is turned into a signal by an enzyme label.
As for B10, the 50% inhibitory concentration (IC50) turned out to be 0.844 µg/mL.
In the case of B11, the IC50 was determined as 1.12 µg/mL.
The same measure, in the same setting: the value for B12 was 0.921 µg/mL; that for B13 was 1.1 µg/mL; that for B14 was 1.06 µg/mL.
B15 gave a half-inhibitory concentration (IC50) of 0.939 µg/mL.

For orientation: Kd means a measure of binding affinity in units of concentration. Low readings indicate a tighter complex, high ones a looser complex. As a reminder, the IC50 is the concentration that gives 50% inhibition.
